US6872537 (University of California, dated 2005)

B1: baculovirus-expressed S. purpuratus katanin p60 subunit with N-terminal His(6) tag (enzyme)
chain: HHHHHHMSVDEICENTKMGREYALLGNYETSLVYYQGVLQQIQKLLTSVHEPQRKHQWQTIRQELSQEYEHVKNITKTLNGFKSEPAAPEPAPNHGRAAPFSHHQHAAKPAAAEPARDPDVWPPPTPVDHRPSPPYQRAARKDPPRRSEPSKPANRAPGNDRGGRGPSDRRGDARSGGGGRGGARGSDKDKNRGGKSDKDKKAPSGEEGDEKKFDPAGYDKDLVENLERDIVQRNPNVHWADIAGLTEAKRLLEEAVVLPLWMPDYFKGIRRPWKGVLMVGPPGTGKTMLAKAVATECGTTFFNVSSASLTSKYHGESEKLVRLLFEMARFYAPSTIFIDEIDSICSKRGTGSEHEASRRVKSELLIQMDGVSGPSAGEESSKMVMVLAATNFPWDIDEALRRRLEKRIYIPLPEIDGREQLLRINLKEVPLADDIDLKSIAEKMDGYSGADITNVCRDASMMAMRRRIQGLRPEEIRHIPKEELNQPSTPADFLLALQKVSKSVGKEDLVKYMAWMEEFGSV
notes: Expressed from pFastBac HT in Sf9 cells; also called p60 katanin; recombinant p60
B2: baculovirus-expressed S. purpuratus katanin p80 subunit with N-terminal His(6) tag (other)
chain: HHHHHHMATKRAWKLQELVAHSSNVNCLALGPMSGRVMVTGGEDKKVNLWAVGKQNCIISLSGHTSPVDSVKFNSSEELVVAGSQSGTMKIYDLEPAKIVRTLTGHRNSIRCMDFHPFGEFVASGSTDTNVKLWDVRRKGCIYTYKGHSDQVNMIKFSPDGKWLVTASEDTTIKLWDLTMGKLFQEFKNHTGGVTGIEFHPNEFLLASGSSDRTVQFWDLETFQLVSSTSPGASAVRSISFHPDGSYLFCSSQDMLHAFGWEPIRCFDTFSVFWGKVADTVIASTQLIGASFNATNVSVYVADLSRMSTTGIAQEPQSQPSKTPSGGAEEVPSKPLTASGRKNFVRERPHTTSSKQRQPDVKSEPERQSPTQDEGVKDDDATDIKDPDSYAKIFSPKTRVDHSPERNAQPFPAPLDVPGAQEPEPFKHPPKPAAAAAVAPVSRAPAPSASDWQPAQANPAPNRVPAATKPVPAQEVAPSRKPDPISTIIPSDRNKPANLDMDAFLPPAHAQQAPRVNAPASRKQSDSERIEGLRKGHDSMCQVLSSRHRNLDVVRAIWTAGDAKTSVESVVNMKDQAILVDILNIMLLKKSLWNLDMCVVVLPRLKELLSSKYENYVHTSCACLKLILKNFTSLFNQNIKCPPSGIDITREERYNKCSKCYSYLIATRGYVEEKQHVSGKLGSSFRELHLLLDQLE
notes: Expressed from pFastBac HT in Sf9 cells; also called p80 katanin; recombinant p80

How the values were obtained:
[1] = target: B2; experiment: co-immunoprecipitation from insect cells co-infected with p60 and p80 baculoviruses, SDS-PAGE with Coomassie
Method: 6xHis-tagged (SEQ ID NO:14) katanin subunits were purified from lysates of baculovirus-infected insect cells by binding to Ni^2+-NTA Superflow followed by elution with imidazole, as described in the Experimental Procedures. […] Proteins bound to the resin were analyzed by SDS-PAGE followed by staining with Coomassie.
After equilibration in TBST, 20–40 μl of antibody beads were added to katanin samples diluted in TBST containing 1–2 mg/ml soybean trypsin inhibitor (SBTI). The immunoprecipitations were incubated at 4° C. for 1–2 hr, washed five times with 1 ml of ice-cold TBST, and eluted in SDS-containing sample buffer.

[2] = target: the molecule itself; experiment: rotary-shadowing electron microscopy of recombinant p60 on mica (self-association into rings)
[3] = target: B1; experiment: Ni-NTA purification of co-expressed His-tagged subunits, Coomassie-stained SDS-PAGE

Binder | binding result [1] | binding result [2] | p60:p80 molar ratio in the purified co-expressed protein [3]
B1 | binds | binds | –
B2 | – | – | ~0.9 mol p80 per mol p60
